According to patent US11242370B2, “Neuregulin-4 compounds and methods of use” (Eli Lilly and Company, priority 2019, dated 2022):

T1: HER4 receptor extracellular domain (ECD) (Homo sapiens, UniProt Q15303)
T1 construct: C-terminal His-tagged HER4 receptor extracellular domain (ECD) construct
T1 sequence (Q15303 26-651 limits assumed): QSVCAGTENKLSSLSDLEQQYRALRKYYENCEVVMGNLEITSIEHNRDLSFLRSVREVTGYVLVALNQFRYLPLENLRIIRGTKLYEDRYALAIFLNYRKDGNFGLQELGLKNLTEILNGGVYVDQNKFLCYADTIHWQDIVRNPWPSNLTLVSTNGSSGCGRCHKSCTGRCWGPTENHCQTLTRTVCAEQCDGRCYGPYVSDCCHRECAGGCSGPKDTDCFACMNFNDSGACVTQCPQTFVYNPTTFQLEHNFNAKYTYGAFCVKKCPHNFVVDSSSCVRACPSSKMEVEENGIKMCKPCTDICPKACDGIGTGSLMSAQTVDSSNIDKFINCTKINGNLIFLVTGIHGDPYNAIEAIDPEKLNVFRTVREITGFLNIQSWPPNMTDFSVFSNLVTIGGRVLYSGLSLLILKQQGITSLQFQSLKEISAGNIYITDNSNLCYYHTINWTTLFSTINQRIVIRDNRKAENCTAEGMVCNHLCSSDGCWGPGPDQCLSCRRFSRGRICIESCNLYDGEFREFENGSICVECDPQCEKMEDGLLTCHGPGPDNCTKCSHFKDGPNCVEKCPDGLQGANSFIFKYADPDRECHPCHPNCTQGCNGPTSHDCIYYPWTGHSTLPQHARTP


Key:
[1] = molecular target: T1, HER4 receptor extracellular domain (ECD); assay: HER4/NRG-Fc binding assay (ELISA) for screening NRG4 variants
Experimental: A binding assay is utilized to perform high-throughput screening of NRG4 variant Fc fusion proteins to HER4 receptor, to identify affinity-driven variants with the potential to increase receptor activation and signaling. ELISA plates are coated with an anti-His tag antibody at 2 μg/ml in PBS to facilitate the standardized capture of a C-terminal His-tagged HER4 receptor extracellular domain (ECD) construct after blocking the plate with 1% BSA/PBS/0.1% Tween 20 (HER4 ECD at 5 μg/ml). Saturating amounts of unpurified NRG4-Fc variants in expression media (Starting at 10 μg/ml with serial dilutions in 1% BSA/PBS/0.1% Tween 20) are incubated with the captured receptor for 1 hour. After washing, bound variant NRG4-Fc is detected colorimetrically with an anti-human Fc-specific alkaline phosphatase secondary detection reagent to quantitate binding. Incubation times of variant binding to receptor or durations of the subsequent wash steps are varied to further identify binding variants driven by affinity on-rate and off-rate, respectively.

rat HER2/HER3 = molecular target: T2, rat HER2/HER3 (Rattus norvegicus, UniProt Q62799); assay: Rat HER2/HER3 phospho-ERK 1/2 assay, purified proteins, CHO-K1 cells; type: cell-based; settings: phospho-ERK1/2
T2 construct: expressed in transfected cells
T2 sequence (Q62799 20-1339): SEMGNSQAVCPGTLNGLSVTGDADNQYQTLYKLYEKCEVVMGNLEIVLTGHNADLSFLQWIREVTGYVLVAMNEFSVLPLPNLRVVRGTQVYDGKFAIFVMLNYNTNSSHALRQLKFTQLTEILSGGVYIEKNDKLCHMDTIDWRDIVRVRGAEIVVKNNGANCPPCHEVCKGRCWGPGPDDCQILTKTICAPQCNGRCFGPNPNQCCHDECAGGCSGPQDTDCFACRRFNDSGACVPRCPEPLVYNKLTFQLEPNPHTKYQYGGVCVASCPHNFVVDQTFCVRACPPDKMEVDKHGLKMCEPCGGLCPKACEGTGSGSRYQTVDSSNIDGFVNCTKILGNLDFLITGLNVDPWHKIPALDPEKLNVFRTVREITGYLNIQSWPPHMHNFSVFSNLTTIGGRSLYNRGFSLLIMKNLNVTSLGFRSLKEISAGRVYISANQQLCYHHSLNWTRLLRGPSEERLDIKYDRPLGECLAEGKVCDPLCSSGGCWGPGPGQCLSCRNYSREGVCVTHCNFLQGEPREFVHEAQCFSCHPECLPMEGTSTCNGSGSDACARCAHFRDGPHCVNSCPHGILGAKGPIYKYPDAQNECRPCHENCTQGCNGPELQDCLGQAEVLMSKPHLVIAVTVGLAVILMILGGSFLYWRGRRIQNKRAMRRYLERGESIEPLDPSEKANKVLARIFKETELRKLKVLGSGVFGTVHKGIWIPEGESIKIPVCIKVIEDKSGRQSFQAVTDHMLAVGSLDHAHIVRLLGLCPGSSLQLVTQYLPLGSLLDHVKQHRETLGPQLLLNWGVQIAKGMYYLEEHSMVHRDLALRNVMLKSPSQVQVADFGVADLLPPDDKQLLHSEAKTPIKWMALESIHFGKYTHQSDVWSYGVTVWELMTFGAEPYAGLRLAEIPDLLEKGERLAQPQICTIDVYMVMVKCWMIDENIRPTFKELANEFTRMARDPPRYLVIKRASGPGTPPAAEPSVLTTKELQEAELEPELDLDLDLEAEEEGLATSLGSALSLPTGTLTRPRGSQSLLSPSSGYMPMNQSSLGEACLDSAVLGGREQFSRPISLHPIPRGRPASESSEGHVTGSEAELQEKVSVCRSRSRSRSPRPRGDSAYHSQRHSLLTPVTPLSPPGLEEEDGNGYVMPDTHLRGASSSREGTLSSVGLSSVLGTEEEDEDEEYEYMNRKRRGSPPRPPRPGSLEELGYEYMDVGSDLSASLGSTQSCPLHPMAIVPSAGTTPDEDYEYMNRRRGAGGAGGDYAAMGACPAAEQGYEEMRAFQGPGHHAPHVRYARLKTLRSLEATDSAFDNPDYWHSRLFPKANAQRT
T2 sequence (P06494 23-1257 partner): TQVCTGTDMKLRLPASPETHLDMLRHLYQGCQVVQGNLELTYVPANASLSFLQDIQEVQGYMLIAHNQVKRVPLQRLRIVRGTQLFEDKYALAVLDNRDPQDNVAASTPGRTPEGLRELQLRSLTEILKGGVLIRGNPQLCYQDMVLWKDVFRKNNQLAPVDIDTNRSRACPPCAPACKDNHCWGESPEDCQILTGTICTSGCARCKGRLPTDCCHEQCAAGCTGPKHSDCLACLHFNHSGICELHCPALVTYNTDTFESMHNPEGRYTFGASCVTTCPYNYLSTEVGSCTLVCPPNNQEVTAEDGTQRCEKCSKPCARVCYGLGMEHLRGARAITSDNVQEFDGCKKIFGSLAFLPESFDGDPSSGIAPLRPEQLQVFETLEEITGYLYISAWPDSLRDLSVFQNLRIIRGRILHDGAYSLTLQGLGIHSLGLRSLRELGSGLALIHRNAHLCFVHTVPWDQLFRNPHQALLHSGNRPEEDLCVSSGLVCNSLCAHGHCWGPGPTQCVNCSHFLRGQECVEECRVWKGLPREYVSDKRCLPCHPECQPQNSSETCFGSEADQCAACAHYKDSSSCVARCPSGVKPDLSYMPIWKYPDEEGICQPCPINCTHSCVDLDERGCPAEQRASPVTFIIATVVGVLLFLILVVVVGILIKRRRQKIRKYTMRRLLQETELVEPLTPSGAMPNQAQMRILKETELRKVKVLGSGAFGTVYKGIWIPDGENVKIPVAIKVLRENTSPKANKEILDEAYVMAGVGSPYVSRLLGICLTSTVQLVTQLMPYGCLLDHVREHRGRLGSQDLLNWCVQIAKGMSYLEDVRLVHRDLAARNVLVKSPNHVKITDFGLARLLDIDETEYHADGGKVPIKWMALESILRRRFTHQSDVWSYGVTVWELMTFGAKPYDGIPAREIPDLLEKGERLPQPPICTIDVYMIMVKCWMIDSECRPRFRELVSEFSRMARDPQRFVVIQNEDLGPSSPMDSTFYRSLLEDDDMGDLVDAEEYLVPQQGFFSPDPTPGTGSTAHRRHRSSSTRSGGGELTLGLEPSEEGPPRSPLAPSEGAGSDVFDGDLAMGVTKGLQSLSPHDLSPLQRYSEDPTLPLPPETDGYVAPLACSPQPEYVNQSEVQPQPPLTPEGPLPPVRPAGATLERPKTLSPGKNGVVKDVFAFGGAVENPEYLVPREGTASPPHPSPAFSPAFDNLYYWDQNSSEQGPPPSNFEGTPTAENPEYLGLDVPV
Experimental: A cell based assay utilizing CHO-K1 cells overexpressing human or rat HER receptors is used to determine activity of NRG4 compounds. CHO-K1 cells (ATCC) are grown in DMEM-F12 3:1 with 5% FBS with 20 mM HEPES, 40 μg/mL L-Proline, lx antibiotics and were split 1:5 every 2-3 days with TripLE Express (Gibco). Cells are transfected with plasmid DNA encoding HER receptors in pairs (hHER2-3, hHER2-4, rHER2-3 and rHER2-4) with Fugene 6 (Promega) according to the manufacturer's instructions. […] Transfected cells are selected with Puromycin (12 ug/ml) and Hygromycin (1 mg/ml) for 3-4 weeks and clonal lines are obtained by limited dilution cloning into 96 well plates. Clonal lines are selected by appropriate gene expression of HER2, HER3 or HER4 by Taqman method. Lines with appropriate receptor expression are confirmed by NRG1 induced phospho-ERK 1/2 responses. Clones are grown up, harvested, aliquoted into cryovials and then frozen under liquid nitrogen for long-term storage.
A phospho-ERK1/2 activity assay is utilized with CHO-K1 cells overexpressing human or rat HER receptors to determine potencies and selectivity of purified NRG4 compounds. CHO-K1 cell lines expressing the human or rat HER receptors are cultured with selection medium (DMEM-F12 3:1 with 5% FBS with 20 mM HEPES, 40 μg/mL L-Proline, 1× antibiotics, 12 μg/mL puromycin, 1 mg/mL Hygromycin B). On Day −1 (the day before phospho-ERK1/2 assay), cells are washed once with PBS, detached with enzyme free cell dissociation solution (GIBCO cat #13151-014), and resuspended in plating medium (DMEM-F12 3:1 with 20 mM HEPES, lx antibiotics, 0.2% FBS). Cells are plated in a 96-well Poly-D-Lysine coated plate (BD cat #354640) at 10,000 cells per 0.1 mL per well. […] Then 7.5 μL donor beads are added and the plate is covered with aluminum foil and incubated at room temperature for 2 hours on plate shaker with 350 rpm agitation or at 4° C. for overnight (warm up plate at room temperature for 2 h before reading). Alpha signal data are obtained on an Envision instrument (Alpha Technology-compatible plate reader). […]

[2] = Dose # 1: Example 1 10.65, WT NRG1 10, WT NRG4 17 μg/mL
[3] = Dose # 2: Example 1 5.325, WT NRG1 5, WT NRG4 8.5 μg/mL
[4] = Dose # 3: Example 1 2.6625, WT NRG1 2.5, WT NRG4 4.25 μg/mL
[5] = Dose # 4: Example 1 1.33125, WT NRG1 1.25, WT NRG4 2.125 μg/mL
[6] = Dose # 5: Example 1 0.665625, WT NRG1 0.625, WT NRG4 1.0625 μg/mL
[7] = Dose # 6: Example 1 0.332813, WT NRG1 0.3125, WT NRG4 0.53125 μg/mL
[8] = Dose # 7: Example 1 0.166406, WT NRG1 0.15625, WT NRG4 0.265625 μg/mL
[9] = Dose # 8: Example 1 0.083203, WT NRG1 0.078125, WT NRG4 0.132813 μg/mL
[10] = Dose # 9: Example 1 0.041602, WT NRG1 0.039063, WT NRG4 0.066406 μg/mL
[11] = Dose # 10: Example 1 0.020801, WT NRG1 0.019531, WT NRG4 0.033203 μg/mL
[12] = Dose # 11: Example 1 0.0104, WT NRG1 0.009766, WT NRG4 0.016602 μg/mL
[13] = Dose # 12: Example 1 0.0052, WT NRG1 0.004883, WT NRG4 0.008301 μg/mL

| Molecule | O.D. 405, binding to HER4 extracellular domain [1, 2] | O.D. 405, binding to HER4 extracellular domain [1, 3] | O.D. 405, binding to HER4 extracellular domain [1, 4] | O.D. 405, binding to HER4 extracellular domain [1, 5] | O.D. 405, binding to HER4 extracellular domain [1, 6] | O.D. 405, binding to HER4 extracellular domain [1, 7] | O.D. 405, binding to HER4 extracellular domain [1, 8] | O.D. 405, binding to HER4 extracellular domain [1, 9] | O.D. 405, binding to HER4 extracellular domain [1, 10] | O.D. 405, binding to HER4 extracellular domain [1, 11] | O.D. 405, binding to HER4 extracellular domain [1, 12] | O.D. 405, binding to HER4 extracellular domain [1, 13] | EC50 (rat HER2/HER3) |
| --- | --- | --- | --- | --- | --- | --- | --- | --- | --- | --- | --- | --- | --- |
| WT NRG1: wild type human NRG1; native peptide purchased from Reprokine in Tables 7-9; comparator in the screening assays of Tables 4 and 6 | 1.501 | 1.439 | 1.399 | 1.31 | 1.27 | 1.022 | 0.8 | 0.514 | 0.316 | 0.179 | 0.114 | 0.084 | 32 ± 14 nM |
| WT NRG4: wild type human NRG4 (SEQ ID NO:1); parental hFcNRG4 in screening (Tables 4-6), native peptide from Reprokine in Tables 7-9 (DHEEPCGPSHKSFCLNGGLCYVIPTIPSPFCRCVENYTGARCEEVFL; listed as Homo sapiens) | 0.651 | 0.597 | 0.485 | 0.347 | 0.224 | 0.154 | 0.111 | 0.088 | 0.071 | 0.07 | 0.066 | 0.066 |  |
| Example 10: NRG4 D1G/V22Q/E44K, (GGGGS)3 linker, SEQ ID NO: 19, fused to IgG Fc dimer SEQ ID NO: 6 and 7 (protein) chain 1: GGGGSGGGGSGGGGSGHEEPCGPSHKSFCLNGGLCYQIPTIPSPFCRCVENYTGARCEKVFL chain 2: ECPPCPAPPVAGPSVFLFPPKPKDTLMISRTPEVTCVVVDVSHEDPEVQFNWYVDGVEVHNAKTKPREEQFNSTFRVVSVLTVVHQDWLNGKEYKCKVSNKGLPAPIEKTISKTKGQPREPQVYTLPPSREEMTKNQVSLWCLVKGFYPSDIAVEWESNGQPENNYKTTPPVLDSDGSFFLYSKLTVDKSRWQQGNVFSCSVMHEALHNHYTQKSLSLSPG chain 3: ECPPCPAPPVAGPSVFLFPPKPKDTLMISRTPEVTCVVVDVSHEDPEVQFNWYVDGVEVHNAKTKPREEQFNSTFRVVSVLTVVHQDWLNGKEYKCKVSNKGLPAPIEKTISKTKGQPREPQVYTLPPSREEMTKNQVSLSCAVKGFYPSDIAVEWESNGQPENNYKTTPPVLDSDGSFFLVSKLTVDKSRWQQGNVFSCSVMHEALHNHYTQKSLSLSPG |  |  |  |  |  |  |  |  |  |  |  |  | > 100 nM |
